Here are results for one substance from US20100247562A1.

For test [1], the target named is human MUC1 (human) (UniProt P15941). The test is described as follows: co-immunoprecipitation with anti-HSP70, anti-MUC1 immunoblot, densitometry; lane 6 (taken to be FC/MUC1 fusion cells). For orientation: In western blotting, separated proteins are transferred to a membrane and probed.
Test [2] has the same target. The test is described as follows: co-immunoprecipitation with anti-HSP70, anti-MUC1 immunoblot, densitometry; lane 4 (taken to be MC38/MUC1 tumor cells).

Sequence of HSP70 (endogenous, immunoprecipitated with anti-HSP70 antibody Ab46 or purified by ADP-agarose from MC38/MUC1 tumor cells or FC/MUC1 DC-tumor fusion cells) (Q61696 2-641): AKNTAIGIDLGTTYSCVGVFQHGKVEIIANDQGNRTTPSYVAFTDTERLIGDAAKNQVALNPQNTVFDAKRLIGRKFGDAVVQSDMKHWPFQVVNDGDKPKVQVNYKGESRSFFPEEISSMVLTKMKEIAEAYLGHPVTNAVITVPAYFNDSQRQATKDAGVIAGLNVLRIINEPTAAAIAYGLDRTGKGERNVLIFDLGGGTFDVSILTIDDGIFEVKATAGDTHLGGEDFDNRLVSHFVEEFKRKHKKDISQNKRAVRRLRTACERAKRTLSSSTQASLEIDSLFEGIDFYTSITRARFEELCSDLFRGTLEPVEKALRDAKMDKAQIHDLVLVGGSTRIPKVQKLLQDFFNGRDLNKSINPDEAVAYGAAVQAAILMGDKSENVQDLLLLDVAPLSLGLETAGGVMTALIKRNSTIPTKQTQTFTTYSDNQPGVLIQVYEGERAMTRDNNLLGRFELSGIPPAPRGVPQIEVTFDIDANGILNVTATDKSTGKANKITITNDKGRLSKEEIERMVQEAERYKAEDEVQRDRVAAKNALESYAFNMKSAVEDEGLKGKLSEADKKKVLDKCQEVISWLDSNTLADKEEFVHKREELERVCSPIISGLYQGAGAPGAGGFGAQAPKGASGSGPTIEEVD
Sequence of UniProt P15941 (P15941 24-1255 limits assumed): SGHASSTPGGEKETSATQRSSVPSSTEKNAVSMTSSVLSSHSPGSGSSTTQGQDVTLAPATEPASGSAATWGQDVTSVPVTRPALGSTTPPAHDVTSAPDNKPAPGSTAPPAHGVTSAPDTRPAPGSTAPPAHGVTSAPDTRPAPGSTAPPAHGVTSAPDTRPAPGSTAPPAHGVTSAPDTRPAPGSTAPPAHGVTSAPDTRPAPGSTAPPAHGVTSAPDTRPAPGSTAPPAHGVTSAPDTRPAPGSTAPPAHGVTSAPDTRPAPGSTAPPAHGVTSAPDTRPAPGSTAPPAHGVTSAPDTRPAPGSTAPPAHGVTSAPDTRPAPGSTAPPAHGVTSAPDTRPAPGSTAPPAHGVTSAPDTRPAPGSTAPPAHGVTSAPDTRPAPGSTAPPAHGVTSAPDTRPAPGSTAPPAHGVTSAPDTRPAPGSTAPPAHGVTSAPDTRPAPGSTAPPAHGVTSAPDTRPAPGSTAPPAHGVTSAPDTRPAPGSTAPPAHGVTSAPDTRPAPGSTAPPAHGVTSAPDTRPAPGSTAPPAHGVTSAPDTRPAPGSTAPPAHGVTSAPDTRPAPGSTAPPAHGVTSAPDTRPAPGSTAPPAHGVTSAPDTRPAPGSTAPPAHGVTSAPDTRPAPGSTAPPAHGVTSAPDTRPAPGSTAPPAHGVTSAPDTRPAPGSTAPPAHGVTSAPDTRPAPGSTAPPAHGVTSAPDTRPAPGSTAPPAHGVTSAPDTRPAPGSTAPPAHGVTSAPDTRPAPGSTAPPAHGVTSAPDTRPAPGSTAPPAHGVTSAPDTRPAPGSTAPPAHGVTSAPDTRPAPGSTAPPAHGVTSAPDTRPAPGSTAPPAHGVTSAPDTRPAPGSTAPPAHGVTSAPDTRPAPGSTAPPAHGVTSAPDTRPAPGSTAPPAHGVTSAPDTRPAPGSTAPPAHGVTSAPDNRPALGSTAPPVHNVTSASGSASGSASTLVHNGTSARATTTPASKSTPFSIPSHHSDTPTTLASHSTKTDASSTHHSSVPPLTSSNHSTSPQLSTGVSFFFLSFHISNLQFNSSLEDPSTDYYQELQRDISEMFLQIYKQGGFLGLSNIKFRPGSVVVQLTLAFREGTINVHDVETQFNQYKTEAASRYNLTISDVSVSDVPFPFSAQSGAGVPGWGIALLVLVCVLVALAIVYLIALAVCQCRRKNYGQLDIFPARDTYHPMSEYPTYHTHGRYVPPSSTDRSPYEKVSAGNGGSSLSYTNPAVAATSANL

In the test with human MUC1 (human) [1], “HSP70 (endogenous, immunoprecipitated with anti-HSP70 antibody Ab46 or purified by ADP-agarose from MC38/MUC1 tumor cells or FC/MUC1 DC-tumor fusion cells)” registered a relative density of MUC1 (lane 6) of 41.5%. The relative density of MUC1 (lane 4) with human MUC1 (human) [2] turned out to be 10.7%.
